Data taken from US20140220040A1 (ARCA BIOPHARMA, published 2014).

T1: Human LRP6-Fc (R&D Systems), recombinant human LRP6 containing the complete extracellular domain (human, UniProt O75581 20-1370)
T1 construct: Bought protein; also called hLRP6; Fc-antigen; not shown: Fc part of the bought fusion protein
T1 sequence: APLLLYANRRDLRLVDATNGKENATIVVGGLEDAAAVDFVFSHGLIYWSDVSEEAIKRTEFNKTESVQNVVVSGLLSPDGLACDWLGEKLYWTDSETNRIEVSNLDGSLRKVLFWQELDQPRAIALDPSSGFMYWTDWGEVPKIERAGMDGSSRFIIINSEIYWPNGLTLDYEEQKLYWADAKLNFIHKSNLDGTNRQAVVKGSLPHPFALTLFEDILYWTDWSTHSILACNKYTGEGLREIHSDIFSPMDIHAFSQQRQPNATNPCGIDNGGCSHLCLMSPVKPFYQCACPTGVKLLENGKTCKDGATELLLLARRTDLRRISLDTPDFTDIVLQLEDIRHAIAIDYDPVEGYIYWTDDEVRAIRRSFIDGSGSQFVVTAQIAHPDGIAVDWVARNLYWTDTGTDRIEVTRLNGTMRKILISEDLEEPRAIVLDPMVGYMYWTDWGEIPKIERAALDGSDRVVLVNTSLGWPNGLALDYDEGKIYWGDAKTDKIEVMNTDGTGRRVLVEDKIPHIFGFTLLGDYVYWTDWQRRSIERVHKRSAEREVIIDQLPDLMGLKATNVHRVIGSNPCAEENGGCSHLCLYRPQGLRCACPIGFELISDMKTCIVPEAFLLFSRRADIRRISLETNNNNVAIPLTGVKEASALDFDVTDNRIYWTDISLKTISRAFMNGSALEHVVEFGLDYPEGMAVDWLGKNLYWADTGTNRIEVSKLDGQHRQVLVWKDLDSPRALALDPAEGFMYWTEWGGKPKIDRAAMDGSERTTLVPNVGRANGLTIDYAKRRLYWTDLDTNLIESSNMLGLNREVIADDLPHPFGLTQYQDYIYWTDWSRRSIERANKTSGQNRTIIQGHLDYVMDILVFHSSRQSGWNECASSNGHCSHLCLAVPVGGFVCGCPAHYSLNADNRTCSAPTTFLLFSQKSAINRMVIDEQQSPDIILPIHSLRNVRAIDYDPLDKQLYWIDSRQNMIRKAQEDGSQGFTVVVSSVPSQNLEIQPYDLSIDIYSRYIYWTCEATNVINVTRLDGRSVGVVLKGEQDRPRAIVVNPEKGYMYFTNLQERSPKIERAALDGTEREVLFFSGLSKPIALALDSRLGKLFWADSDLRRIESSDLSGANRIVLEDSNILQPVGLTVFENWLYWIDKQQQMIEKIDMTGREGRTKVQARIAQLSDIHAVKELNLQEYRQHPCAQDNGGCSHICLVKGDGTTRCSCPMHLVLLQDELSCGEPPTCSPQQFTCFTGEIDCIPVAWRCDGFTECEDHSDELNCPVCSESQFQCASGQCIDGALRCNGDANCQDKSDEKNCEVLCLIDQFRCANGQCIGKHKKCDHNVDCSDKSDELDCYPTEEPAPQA

T2: LRP6Δ1-2 propeller domain deletion construct (human, UniProt O75581 629-1613)
T2 construct: Deletion construct of human LRP6 expressed in 293 cells
T2 sequence: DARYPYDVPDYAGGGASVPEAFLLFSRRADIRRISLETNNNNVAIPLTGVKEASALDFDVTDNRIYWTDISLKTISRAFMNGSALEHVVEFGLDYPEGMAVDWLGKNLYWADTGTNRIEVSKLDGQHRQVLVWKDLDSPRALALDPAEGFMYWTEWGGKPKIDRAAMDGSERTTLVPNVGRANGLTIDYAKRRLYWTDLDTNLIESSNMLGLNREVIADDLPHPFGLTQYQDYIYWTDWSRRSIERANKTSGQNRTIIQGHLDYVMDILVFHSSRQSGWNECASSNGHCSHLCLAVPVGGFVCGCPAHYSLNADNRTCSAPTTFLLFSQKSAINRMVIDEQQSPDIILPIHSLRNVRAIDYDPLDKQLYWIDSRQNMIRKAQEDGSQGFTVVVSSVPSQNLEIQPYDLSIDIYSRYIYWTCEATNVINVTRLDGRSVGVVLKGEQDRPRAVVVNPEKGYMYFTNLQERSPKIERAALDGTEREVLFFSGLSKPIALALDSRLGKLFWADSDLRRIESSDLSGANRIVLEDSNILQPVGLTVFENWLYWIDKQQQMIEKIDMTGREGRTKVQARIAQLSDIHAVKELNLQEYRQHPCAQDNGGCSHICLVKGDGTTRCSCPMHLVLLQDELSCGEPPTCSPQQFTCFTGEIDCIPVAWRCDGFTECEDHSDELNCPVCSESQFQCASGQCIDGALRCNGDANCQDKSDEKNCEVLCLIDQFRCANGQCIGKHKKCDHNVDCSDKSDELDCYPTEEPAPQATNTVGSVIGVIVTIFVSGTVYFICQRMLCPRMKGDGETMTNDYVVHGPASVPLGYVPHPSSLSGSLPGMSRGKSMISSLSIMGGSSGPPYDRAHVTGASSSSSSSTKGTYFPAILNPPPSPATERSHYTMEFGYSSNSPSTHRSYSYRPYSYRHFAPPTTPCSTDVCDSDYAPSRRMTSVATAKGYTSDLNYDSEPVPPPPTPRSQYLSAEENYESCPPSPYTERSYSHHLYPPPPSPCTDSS

T3: LRP6Δ1/4
T3 construct: also called LRP6Del1-4
T3 chain: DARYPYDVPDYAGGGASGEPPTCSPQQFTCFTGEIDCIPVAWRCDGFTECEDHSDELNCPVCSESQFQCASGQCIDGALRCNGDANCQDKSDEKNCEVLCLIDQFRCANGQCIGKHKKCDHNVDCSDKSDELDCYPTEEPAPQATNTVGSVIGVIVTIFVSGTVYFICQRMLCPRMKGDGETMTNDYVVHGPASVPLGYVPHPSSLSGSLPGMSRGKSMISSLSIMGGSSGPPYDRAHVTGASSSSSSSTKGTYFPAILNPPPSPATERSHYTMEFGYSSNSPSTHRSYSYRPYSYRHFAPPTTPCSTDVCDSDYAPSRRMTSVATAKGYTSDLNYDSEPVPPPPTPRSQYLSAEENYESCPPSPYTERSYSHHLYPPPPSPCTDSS


Columns and labels:
[1] = molecular target: T1, Human LRP6-Fc (R&D Systems), …; assay: SPR (BIAcore): mAb captured on an anti-mouse chip, Fc-antigen injected from 45 nM in 3-fold dilutions, 1:1 fit [cont., panel R]
Experimental: (§1) Kinetic rate constants (kₐ and kd) were determined using surface plasmon resonance, and affinities (KD) were then calculated from the rate constants (kd/kₐ). Surface plasmon resonance was carried out on a BIAcore system (Biacore International AB, Uppsala, Sweden). Each murine anti-LRP6 mAb sample was diluted 100 fold and captured onto an anti-mouse sensor chip surface. The running buffer contained 10 mM HEPES, 150 mM NaCl, 0.005% Tween-20 and 0.1 mg/ml BSA. Following the capturing step, the Fc-antigen was injected at 45 nM as the highest concentration in a 3-fold dilution series. The association and dissociation phases were monitored for 8 and 60 minutes, respectively. The antigen response data were fit into a 1:1 interaction model.

[2] = molecular target: T1, Human LRP6-Fc (R&D Systems), …; assay: SPR (BIAcore): mAb captured on an anti-mouse chip, Fc-antigen injected from 45 nM in 3-fold dilutions, 1:1 fit. The sheet prints no unit for ka; the unit is from the head of Table 4. [cont., panel R]
Experimental: as §1

[3] = molecular target: T1, Human LRP6-Fc (R&D Systems), …; assay: SPR (BIAcore): mAb captured on an anti-mouse chip, Fc-antigen injected from 45 nM in 3-fold dilutions, 1:1 fit. The sheet prints no unit for kd; the unit is from the head of Table 4. [cont., panel R]
Experimental: as §1

[4] = molecular target: T1, Human LRP6-Fc (R&D Systems), …; assay: SPR (BIAcore), mAb captured on anti-mouse chip, Fc-antigen injected, 1:1 model
Experimental: as §1

[5] = molecular target: T2, LRP6Δ1-2 propeller domain deletion …; assay: flow cytometry on 293 cells expressing the deletion construct
Experimental: (§2) To identify the region of LRP6 that is recognized by LRP6 mAbs, a series of LRP6 propeller domain deletion constructs were made (SEQ ID NO: 6-15) and expressed in 293 cells. Binding of anti-LRP6 mAbs was determined by flow cytometry. […] Amino acid sequence alignments of the heavy and light chain variable domains of the anti-LRP6 mAbs disclosed herein are shown in FIGS. 4 and 5, respectively.

LRP6Δ1/4 = molecular target: T3, LRP6Δ1/4; assay: FACS on 293 cells transfected with LRP6Δ1/4 [cont.]
Experimental: as §2

| Kd [1] | kon [2] | koff [3] | Kd [4] | koff [4] | kon [4] | binding result [5] | binding result (LRP6Δ1/4) | Binder |
| --- | --- | --- | --- | --- | --- | --- | --- | --- |
| 3.51 nM | 20800 M⁻¹ s⁻¹ | 7.3e-05 s⁻¹ |  |  |  |  |  | anti-LRP6 monoclonal antibody 1470.2 (antibody, V domains shown, Murine hybridoma mAb, protein G purified; also called VH22/VL22) VH: DVNLVESGGGLVKLGGSLKLSCAASGFTFSSFYMSWVRQTPEKRLDLVAAINTNGGSTYYSDTVKGRFTISRDNAKNTLYLQMSSLKSEDTALFYCARQPYYGGPMDFWGQGTSVTVSS VL: DIVLTQSPATLSVTPGDSVSLSCRASQSINNNLHWYQQKSHESPRLLIKYASQSISGIPSRFSGSGSGTDFTLSINSVETEDFGMYFCQQSNNWPLTFGAGTKLEL |
|  |  |  | 2.79 nM | 9.4e-05 s⁻¹ | 33700 M⁻¹ s⁻¹ |  |  | anti-LRP6 monoclonal antibody 1903.1 (antibody, V domains shown, Murine hybridoma mAb, protein G purified; also called VH23/VL23) VH: DVNLVESGGGLVKLGGSLKLSCAASGFTFSRFYMSWVRQTPEKRLDLVAAINTNGGSTYYSDTVKGRFTISRDNAKNTLYLQMSSLKSEDTALFYCARQPYYGGPMEFWGQGTSVTVSS VL: DIVMTQSQKFMSTSVGDRVSVTCKASQNVGTNVAWYQQKPGQSPKALIYSASYRYSGVPDRFTGSGSGSDFTLTISNVQSEDLAEYFCQQYNSYPLTFGAGTKLEL |
|  |  |  | 0.73 nM | 1.9e-05 s⁻¹ | 26300 M⁻¹ s⁻¹ | no binding | no binding (tested: not stated) | anti-LRP6 monoclonal antibody 135.16 (antibody, V domains shown, Murine hybridoma mAb, protein G purified; also called mAb135.16) VH: QVQLQQSGAELVKPGASVKMSCKAFGYTFTSYPIEWMKQNHGKSLEWIGNFHPYNDNTKYNEKFKGKAKLTVEKSSSTVYLELSRSTSDDSAVYYCARGYSGNYFSAMDYWGQGTSVTVSS VL: DIVMTQSQKFMSTSVGDRVSITCKASQNVRNDVAWYQQKPGQSPKSLIYLASNRHTGVPDRFTGSGSGTDFTLTISNVQSEDLADYFCLQHWNYPYTFGGGTKLEIKR |
